Measured values: PMC5711931

Assays:
[1] = molecular target: F-actin of the thin filaments in ghost muscle fibres (rabbit psoas) (rabbit (endogenous in m. psoas fibres)) (UniProt P68135); test: incorporation into ghost muscle fibres, washing, SDS-PAGE; ghost fibres with thin filaments reconstructed with Tpm and TN, decorated with S1; presence of AMPPNP (16 mM AMPPNP, 8 mM MgCl2)
[2] = molecular target: F-actin of the thin filaments in ghost muscle fibres (rabbit psoas) (rabbit (endogenous in m. psoas fibres)) (UniProt P68135); test: incorporation into ghost muscle fibres, washing, SDS-PAGE; ghost fibres with thin filaments reconstructed with Tpm and TN, decorated with S1; presence of ATP (5 mM ATP, 18 mM MgCl2, creatine phosphate and creatine kinase)
[3] = molecular target: F-actin of the thin filaments in ghost muscle fibres (rabbit psoas) (rabbit (endogenous in m. psoas fibres)) (UniProt P68135)
[4] = molecular target: F-actin of the thin filaments in ghost muscle fibres (rabbit psoas) (rabbit (endogenous in m. psoas fibres)) (UniProt P68135); test: incorporation into ghost muscle fibres, washing, SDS-PAGE; ghost fibres with thin filaments reconstructed with Tpm and TN, decorated with S1; absence of nucleotide
[5] = molecular target: F-actin of the thin filaments in ghost muscle fibres (rabbit psoas) (rabbit (endogenous in m. psoas fibres)) (UniProt P68135); test: incorporation into ghost muscle fibres, washing, SDS-PAGE; ghost fibres with thin filaments reconstructed with Tpm and TN, decorated with S1; presence of ADP (2.5 mM ADP, 3 mM MgCl2)
[6] = molecular target: F-actin of the thin filaments in ghost muscle fibres (rabbit psoas) (rabbit (endogenous in m. psoas fibres)) (UniProt P68135); test: fluorescence intensity of the labelled protein in ghost muscle fibres (polarized fluorimeter); AF-Tpm-TN incorporated into the actin filaments of ghost fibres; Isum of the four polarized intensity components, n = 25; excitation 436 ± 5 nm, emission 500-600 nm
[7] = molecular target: F-actin of the thin filaments in ghost muscle fibres (rabbit psoas) (rabbit (endogenous in m. psoas fibres)) (UniProt P68135); test: incorporation into ghost muscle fibres, washing, SDS-PAGE with densitometry; single rabbit psoas ghost fibres incubated with Tpm and TN in 50 mM KCl, 3 mM MgCl2, 1 mM DTT, 6.7 mM K, Na phosphate buffer, pH 7.0; unbound Tpm and TN washed out for 15 min; 8-10 fibres per gel lane, 12% SDS-PAGE, ImageJ

Chain of myosin subfragment-1 from rabbit fast skeletal muscle myosin (domain or fragment) (Q28641 whole entry, the tested form may be a part): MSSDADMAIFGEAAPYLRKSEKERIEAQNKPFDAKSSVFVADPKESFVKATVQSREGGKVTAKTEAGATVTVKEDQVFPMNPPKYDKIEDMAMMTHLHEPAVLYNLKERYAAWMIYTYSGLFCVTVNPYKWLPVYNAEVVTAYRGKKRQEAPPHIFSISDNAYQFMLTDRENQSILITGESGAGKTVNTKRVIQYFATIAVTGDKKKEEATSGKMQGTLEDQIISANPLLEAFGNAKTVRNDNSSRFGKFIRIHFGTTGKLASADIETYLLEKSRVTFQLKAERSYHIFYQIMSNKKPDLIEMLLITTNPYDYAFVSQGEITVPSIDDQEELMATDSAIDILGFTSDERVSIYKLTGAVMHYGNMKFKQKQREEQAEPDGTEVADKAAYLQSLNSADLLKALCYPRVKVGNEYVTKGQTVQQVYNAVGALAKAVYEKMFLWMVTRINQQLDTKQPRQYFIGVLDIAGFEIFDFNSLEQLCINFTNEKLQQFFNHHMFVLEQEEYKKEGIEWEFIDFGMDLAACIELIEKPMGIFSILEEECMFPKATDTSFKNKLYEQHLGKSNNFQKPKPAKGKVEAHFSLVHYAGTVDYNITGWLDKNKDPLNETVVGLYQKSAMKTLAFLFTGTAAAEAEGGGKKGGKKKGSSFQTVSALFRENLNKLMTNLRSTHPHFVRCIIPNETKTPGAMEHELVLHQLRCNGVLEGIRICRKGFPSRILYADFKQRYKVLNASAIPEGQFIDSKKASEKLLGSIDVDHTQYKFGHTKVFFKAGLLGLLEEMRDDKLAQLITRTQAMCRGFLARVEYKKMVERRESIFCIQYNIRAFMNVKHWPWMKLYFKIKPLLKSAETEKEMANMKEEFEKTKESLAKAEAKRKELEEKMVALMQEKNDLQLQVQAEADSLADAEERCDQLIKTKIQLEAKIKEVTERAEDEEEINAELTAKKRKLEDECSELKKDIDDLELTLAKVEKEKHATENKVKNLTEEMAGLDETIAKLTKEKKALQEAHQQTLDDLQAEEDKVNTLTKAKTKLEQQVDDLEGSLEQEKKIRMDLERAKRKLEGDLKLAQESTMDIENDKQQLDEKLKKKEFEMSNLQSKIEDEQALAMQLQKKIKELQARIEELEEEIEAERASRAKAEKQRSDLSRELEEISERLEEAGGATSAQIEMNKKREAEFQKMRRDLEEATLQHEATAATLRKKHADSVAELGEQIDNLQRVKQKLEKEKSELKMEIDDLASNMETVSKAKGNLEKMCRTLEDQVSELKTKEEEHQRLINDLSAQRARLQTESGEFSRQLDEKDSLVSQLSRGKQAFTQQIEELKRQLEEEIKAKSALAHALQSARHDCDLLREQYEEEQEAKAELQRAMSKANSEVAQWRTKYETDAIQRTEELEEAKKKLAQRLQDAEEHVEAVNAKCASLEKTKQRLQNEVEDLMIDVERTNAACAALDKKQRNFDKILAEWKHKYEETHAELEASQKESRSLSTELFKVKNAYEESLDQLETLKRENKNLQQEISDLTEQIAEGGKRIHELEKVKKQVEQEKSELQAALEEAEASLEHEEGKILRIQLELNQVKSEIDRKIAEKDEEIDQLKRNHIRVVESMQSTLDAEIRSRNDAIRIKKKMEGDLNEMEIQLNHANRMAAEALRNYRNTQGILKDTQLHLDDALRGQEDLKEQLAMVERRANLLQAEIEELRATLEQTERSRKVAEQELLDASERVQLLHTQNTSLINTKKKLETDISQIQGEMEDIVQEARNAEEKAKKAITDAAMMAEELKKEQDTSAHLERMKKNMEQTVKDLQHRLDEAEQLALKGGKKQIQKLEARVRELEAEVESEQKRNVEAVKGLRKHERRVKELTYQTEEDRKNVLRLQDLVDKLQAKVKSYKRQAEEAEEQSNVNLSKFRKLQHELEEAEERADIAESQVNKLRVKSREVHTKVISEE

For “myosin subfragment-1 from rabbit fast skeletal muscle myosin (domain or fragment)”, the molar ratio of S1 to actin (1:x, value is x) (mol actin per mol S1) [1] was 8, the molar ratio of S1 to actin (1:x, value is x) (mol actin per mol S1) [2] was 14 and the ΦE of the polarized fluorescence of AEDANS-S1 in ghost fibres containing ΔE139Tpm against fibres containing WTTpm; TN, high Ca2+, no nucleotide [3] was 0.4 °. The molar ratio of S1 to actin (1:x, value is x) (mol actin per mol S1) [4] was 5 and the molar ratio of S1 to actin (1:x, value is x) (mol actin per mol S1) [5] was 5.

In the case of “recombinant tropomyosin Tpm2.2 with the E139 deletion labelled with 5-IAF (natural protein)”, the fluorescence intensity Isum of the bound labelled Tpm [6] was 266.

“recombinant tropomyosin Tpm2.2 with the E139 deletion, ββ-homodimer (natural protein)” gave an amount bound, percent of the amount of WTTpm [7] of 85%.

With “recombinant wild-type tropomyosin Tpm2.2 labelled with 5-IAF (natural protein)” the fluorescence intensity Isum of the bound labelled Tpm [6] was 236.
